In the supplement of paper PMC10567573:

B1: FBXO3 (parent)
chain: DEEERRRRVFDVPIRRRRCSRLF

Variants of: B1
Test: protein stability index of a GFP-peptide fusion (GPS, HEK-293T) (PSI 1-6); higher = more stable
Conditions: c terminus: native
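Note: lentivirally expressed fusions sorted by FACS into six bins by GFP to DsRed ratio, PSI derived from sequencing read proportions per bin multiplied by bin number.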

| Variant | protein stability index |
| --- | --- |
| DEEEQRRRVFDVPIRRRRCSRLF [R5Q] | 4.1 |
| DEEEYRRRVFDVPIRRRRCSRLF [R5Y] | 2.85 |
| DEEEPRRRVFDVPIRRRRCSRLF [R5P] | 3.3 |
| DEEESRRRVFDVPIRRRRCSRLF [R5S] | 3.55 |
| DEEELRRRVFDVPIRRRRCSRLF [R5L] | 3.12 |
| DEEEWRRRVFDVPIRRRRCSRLF [R5W] | 2.23 |
| DEEENRRRVFDVPIRRRRCSRLF [R5N] | 3.77 |
| DEEETRRRVFDVPIRRRRCSRLF [R5T] | 3.51 |
| DEEEMRRRVFDVPIRRRRCSRLF [R5M] | 3.59 |
| DEEEVRRRVFDVPIRRRRCSRLF [R5V] | 3.25 |
| DEEERYRRVFDVPIRRRRCSRLF [R6Y] | 1.78 |
| DEEERSRRVFDVPIRRRRCSRLF [R6S] | 3.8 |
| DEEERNRRVFDVPIRRRRCSRLF [R6N] | 3.87 |
| DEEERWRRVFDVPIRRRRCSRLF [R6W] | 1.56 |
| DEEERPRRVFDVPIRRRRCSRLF [R6P] | 3.79 |
| DEEERERRVFDVPIRRRRCSRLF [R6E] | 4.16 |
| DEEERKRRVFDVPIRRRRCSRLF [R6K] | 3.35 |
| DEEERMRRVFDVPIRRRRCSRLF [R6M] | 2.58 |
| DEEERCRRVFDVPIRRRRCSRLF [R6C] | 2.83 |
| DEEERQRRVFDVPIRRRRCSRLF [R6Q] | 3.79 |
| DEEERLRRVFDVPIRRRRCSRLF [R6L] | 2.69 |
| DEEERARRVFDVPIRRRRCSRLF [R6A] | 3.51 |
| DEEERHRRVFDVPIRRRRCSRLF [R6H] | 3.17 |
| DEEERFRRVFDVPIRRRRCSRLF [R6F] | 1.35 |
| DEEERIRRVFDVPIRRRRCSRLF [R6I] | 2.36 |

| Variant | protein stability index |
| --- | --- |
| DEEERDRRVFDVPIRRRRCSRLF [R6D] | 4.26 |
| DEEERVRRVFDVPIRRRRCSRLF [R6V] | 3.2 |
| DEEERTRRVFDVPIRRRRCSRLF [R6T] | 3.66 |
| DEEERGRRVFDVPIRRRRCSRLF [R6G] | 4.09 |
| DEEERRRRVKDVPIRRRRCSRLF [F10K] | 4.19 |
| DEEERRRRVGDVPIRRRRCSRLF [F10G] | 4.62 |
| DEEERRRRVDDVPIRRRRCSRLF [F10D] | 4.51 |
| DEEERRRRVMDVPIRRRRCSRLF [F10M] | 3.87 |
| DEEERRRRVIDVPIRRRRCSRLF [F10I] | 3.84 |
| DEEERRRRVEDVPIRRRRCSRLF [F10E] | 4.16 |
| DEEERRRRVLDVPIRRRRCSRLF [F10L] | 3.06 |
| DEEERRRRVCDVPIRRRRCSRLF [F10C] | 3.43 |
| DEEERRRRVNDVPIRRRRCSRLF [F10N] | 4.45 |
| DEEERRRRVHDVPIRRRRCSRLF [F10H] | 4.08 |
| DEEERRRRVADVPIRRRRCSRLF [F10A] | 4.88 |
| DEEERRRRKFDVPIRRRRCSRLF [V9K] | 3.72 |
| DEEERRRRTFDVPIRRRRCSRLF [V9T] | 3.65 |
| DEEERRRRPFDVPIRRRRCSRLF [V9P] | 3.44 |
| DEEERRRRLFDVPIRRRRCSRLF [V9L] | 2.53 |
| DEEERRRRMFDVPIRRRRCSRLF [V9M] | 2.47 |
| DEEERRRRNFDVPIRRRRCSRLF [V9N] | 3.75 |
| DEEERRRRDFDVPIRRRRCSRLF [V9D] | 4.46 |
| DEEERRRRYFDVPIRRRRCSRLF [V9Y] | 2.64 |
| DEEERRRRAFDVPIRRRRCSRLF [V9A] | 3.43 |
| DEEERRRRRFDVPIRRRRCSRLF [V9R] | 2.71 |

| Variant | protein stability index |
| --- | --- |
| DEEERRRRCFDVPIRRRRCSRLF [V9C] | 2.74 |
| DEEERRRRIFDVPIRRRRCSRLF [V9I] | 2.42 |
| DEEERRRREFDVPIRRRRCSRLF [V9E] | 4.03 |
| DEEERRRRWFDVPIRRRRCSRLF [V9W] | 2.94 |
| DEEERRRRFFDVPIRRRRCSRLF [V9F] | 2.19 |
| DEEERRRRHFDVPIRRRRCSRLF [V9H] | 3.54 |
| DEEERRRRQFDVPIRRRRCSRLF [V9Q] | 3.45 |
| DEEERRRRGFDVPIRRRRCSRLF [V9G] | 3.87 |
| DEEERRRRSFDVPIRRRRCSRLF [V9S] | 3.47 |
| DEEERRKRVFDVPIRRRRCSRLF [R7K] | 2.79 |
| DEEERRWRVFDVPIRRRRCSRLF [R7W] | 1.97 |
| DEEERRHRVFDVPIRRRRCSRLF [R7H] | 3.06 |
| DEEERRERVFDVPIRRRRCSRLF [R7E] | 3.88 |
| DEEERRNRVFDVPIRRRRCSRLF [R7N] | 3.8 |
| DEEERRARVFDVPIRRRRCSRLF [R7A] | 3.6 |
| DEEERRLRVFDVPIRRRRCSRLF [R7L] | 3.19 |
| DEEERRSRVFDVPIRRRRCSRLF [R7S] | 4.28 |
| DEEERRCRVFDVPIRRRRCSRLF [R7C] | 2.89 |
| DEEERRDRVFDVPIRRRRCSRLF [R7D] | 4 |
| DEEERRTRVFDVPIRRRRCSRLF [R7T] | 3.67 |
| DEEERRIRVFDVPIRRRRCSRLF [R7I] | 2.8 |
| DEEERRQRVFDVPIRRRRCSRLF [R7Q] | 3.69 |
| DEEERRVRVFDVPIRRRRCSRLF [R7V] | 3.01 |
| DEEERRGRVFDVPIRRRRCSRLF [R7G] | 3.64 |
| DEEERRFRVFDVPIRRRRCSRLF [R7F] | 2.61 |

| Variant | protein stability index |
| --- | --- |
| DEEERRYRVFDVPIRRRRCSRLF [R7Y] | 2.51 |
| DEEERRPRVFDVPIRRRRCSRLF [R7P] | 3.71 |
| DEEERRMRVFDVPIRRRRCSRLF [R7M] | 2.3 |
| DEEERRRQVFDVPIRRRRCSRLF [R8Q] | 3.66 |
| DEEERRRGVFDVPIRRRRCSRLF [R8G] | 4.29 |
| DEEERRRNVFDVPIRRRRCSRLF [R8N] | 3.35 |
| DEEERRRIVFDVPIRRRRCSRLF [R8I] | 2.88 |
| DEEERRRSVFDVPIRRRRCSRLF [R8S] | 3.01 |
| DEEERRRYVFDVPIRRRRCSRLF [R8Y] | 1.95 |
| DEEERRRDVFDVPIRRRRCSRLF [R8D] | 3.58 |
| DEEERRRLVFDVPIRRRRCSRLF [R8L] | 2.94 |
| DEEERRRVVFDVPIRRRRCSRLF [R8V] | 3.66 |
| DEEERRRWVFDVPIRRRRCSRLF [R8W] | 2.4 |
| DEEERRRHVFDVPIRRRRCSRLF [R8H] | 3.1 |
| DEEERRRPVFDVPIRRRRCSRLF [R8P] | 3.63 |
| DEEERRREVFDVPIRRRRCSRLF [R8E] | 3.64 |
| DEEERRRAVFDVPIRRRRCSRLF [R8A] | 3.74 |
| DEEERRRFVFDVPIRRRRCSRLF [R8F] | 1.28 |
| DEEERRRMVFDVPIRRRRCSRLF [R8M] | 2.89 |
| DEEERRRCVFDVPIRRRRCSRLF [R8C] | 2.33 |
| DEEERRRTVFDVPIRRRRCSRLF [R8T] | 3.86 |
| DEEERRRKVFDVPIRRRRCSRLF [R8K] | 2.87 |
